Assay [1] deals with c-Met receptor on A549 cells (human, UniProt P08581 25-1390). The assay is described as follows: cell-based or functional assay.
In assay [2] the target is T1, recombinant c-Met-Extra-Cellular Domain (ECD) fused to a human IgG1 Fc domain (R&D Systems, 358MT) (human, UniProt P08581 25-932).
T1 construct: extracellular domain; Bought; bivalent (dimeric) fusion, MW 129 kDa as printed; also called c-Met-Fc; c-Met-Fc-Tag His; not shown: human IgG1 Fc domain
As to the kind of experiment: displacement of [125I]-HGF from immobilized c-Met-Fc (FlashPlate). (In general: Displacement assays read how much labelled ligand stays bound in the presence of the test substance.)

Assay [3] concerns the target T2, recombinant SEMA domain of c-Met (UniProt P08581 27-515, limits assumed).
T2 construct: domain: SEMA; also called SEMA protein
As to the kind of experiment: ELISA, SEMA domain coated at 3 µg/ml, hybridoma supernatants.
Procedure: The reaction is left to occur for 5 min at room temperature. The reaction is stopped by the addition of 50 μl/well of a 1 M H₂SO₄ solution and read on a plate reader at 450 nm.

The target of assay [4] is C-Met-Rluc and C-Met-K1100A-YFP co-expressed in CHO stable cell lines (R. reniformis), P08581. The assay is described as follows: cell-based or functional assay.
In assay [5] the target is T1, recombinant c-Met-Extra-Cellular Domain …. As to the kind of experiment: BIAcore X, Fab as analyte on c-Met-Fc-His captured by anti-His antibody, 25°C. A general note: SPR reads the build-up and loss of mass on a sensor chip optically.
Procedure: (§1) For the assay, an anti-Tag histidine capture antibody was coated on CM5 sensorchips. The running buffer was HBS-EP, the flow rate was 30 μl/min and the test was performed at 25° C. Soluble c-Met (ECD M1)2-Fc-(HHHHHH)₂ antigen was captured on the sensorchip (around 270 RU), and the antibodies to be tested were used in solution as analytes. The sensorship was regenerated using Glycine, HCl pH 1.5 buffer on both flowcells for half a minute.
Assay [6] shares this target. As to the kind of experiment: BIAcore X, Fab as analyte on c-Met-Fc-His captured by anti-His antibody, 25°C; column head misprinted.
Procedure: as §1

For “5D5 Mab, generated by Genentech, available at the ATCC (antibody)”, in assay [1], the agonist effect on c-Met phosphorylation (Mab alone, A549 cells) was determined as 58%; the antagonist effect on c-Met phosphorylation in presence of HGF (A549 cells) was found to be 39%; the inhibition of c-Met phosphorylation (phospho c-Met ELISA, A549 cells + HGF 100 ng/ml, antibody 30 µg/ml) stood at 42%.

B1: 223C4 murine monoclonal antibody (antibody, mouse IgG1, V domains shown)
VH: EVLLQQSGPELVKPGASVKIPCKASGYTFTDYNMDWVKQSHGMSLEWIGDINPNNGGTIFNQKFKGKATLTVDKSSSTAYMELRSLTSEDTAVYYCARGRYVGYYYAMDYWGQGTSVTVSS
VL: DIQMTQSPASLSVSVGETVTITCRASENIYSNLAWYQQKQGKSPQLLVYAATNLVDGVPSRFSGSGSGTQYSLKINSLQSEDFGSYYCQHFWGPPYTFGGGTKLEIK
notes: also called CNCM I-3786
With B1, the IC50 (usually the concentration needed to halve the response being measured) in assay [2] amounted to 2.7 nM. Moreover, the binding result in assay [3] is “no binding”. Further, in assay [1], the “basal effect on c-Met phosphorylation (antibody alone, A549 cells)” value (“basal effect on c-Met phosphorylation” below) is under 20% and the “inhibition of c-Met phosphorylation (phospho c-Met ELISA, A549 cells + HGF 100 ng/ml, antibody 30 µg/ml)” value (from here on “inhibition of c-Met phosphorylation”) turned out to be 80%. In assay [4], this molecule registered an inhibition of dimerization (BRET signal, CHO cells) of 55%.

B2: 224G11 murine monoclonal antibody (antibody, mouse IgG1, V domains shown)
VH: EVQLQQSGPELVKPGASVKISCKTSGYIFTAYTMHWVRQSLGESLDWIGGIKPNNGLANYNQKFKGKATLTVDKSSSTAYMDLRSLTSEDSAVYYCARSEITTEFDYWGQGTALTVSS
VL: DIVLTQSPASLAVSLGQRATISCRASESVDSYANSFMHWYQQKPGQPPKLLIYRASNLESGIPARFSGSGSRTDFTLTINPVEADDVATYYCQQSKEDPLTFGSGTKLEMK
notes: also called CNCM I-3731
As for B2, the half-inhibitory concentration (IC50) in assay [2] was determined as 3 nM. Moreover, the binding result in assay [3] was “no binding”. Further, in assay [1], the “basal effect on c-Met phosphorylation” value is under 20% and the “inhibition of c-Met phosphorylation” value was determined as 54%. For the same molecule, the inhibition of dimerization (BRET signal, CHO cells) in assay [4] worked out at 32%.

B3: 227H1 murine monoclonal antibody (antibody, mouse IgG1, V domains shown)
VH: EVQLQQSGPELVKPGASMKISCKASGYSFTDYTLNWVKQSHGKTLEWIGLINPYNGGTTYNQKFKGKATLTVDKSSSTAYMELLSLTSEDSAVYYCAREEITKDFDFWGQGTTLTVSS
VL: GIVLTQSPASLAVSLGQRATISCRVSESIDTYGNSFIHWYQQKPGQPPKLLIYRASNLESGIPARFSGSGSRTDFTLTINPVEADDSATYYCQQSNEDPFTFGSGTKLEMK
notes: also called CNCM I-3732
On to B3, for which the IC50 in assay [2] was determined as 5.8 nM. Further, the binding result in assay [3] is reported as “no binding”. In assay [1], the “basal effect on c-Met phosphorylation” value was under 20% and the “inhibition of c-Met phosphorylation” value came out at 65%. This molecule came in with an inhibition of dimerization (BRET signal, CHO cells) in assay [4] of 52%.

B4: Fab fragment of mAb 224G11 (papain cleavage) (Fab, V domains shown)
VH: EVQLQQSGPELVKPGASVKISCKTSGYIFTAYTMHWVRQSLGESLDWIGGIKPNNGLANYNQKFKGKATLTVDKSSSTAYMDLRSLTSEDSAVYYCARSEITTEFDYWGQGTALTVSS
VL: DIVLTQSPASLAVSLGQRATISCRASESVDSYANSFMHWYQQKPGQPPKLLIYRASNLESGIPARFSGSGSRTDFTLTINPVEADDVATYYCQQSKEDPLTFGSGTKLEMK
notes: also called 224G11 Fab
Turning to B4, in assay [5], the Half-Life amounted to 2.5 h; the Kd (commonly a measure of binding affinity in units of concentration) turned out to be 0.0348 nM; the kon – broadly, the rate constant with which the complex forms – is 2.04e+06 M⁻¹ s⁻¹. For the same molecule, the koff (in general, a measure of how fast the partners let go of each other) in assay [6] came to 7.79e-05 s⁻¹.

B5: 11E1 murine monoclonal antibody (antibody, V domains shown)
VH: QVQLQQSGAELAKPGASVKMSCKASGYTFTSYWMNWVKQRPGQGLEWIGYINPTTGSTDYNQKLKDKATLTADKSSNTAYMQLSSLTSEDSAVYYCAIGGYGSWFAYWGQGTLVTVSA
VL: QIVLTQSPAIMSASPGEKVTLTCSASSSVSSTYLYWYQQKPGSSPKLWIYTTSILASGVPARFSGSGSGTSYSLTISSMETEDAASYFCHQWSSYPFTFGSGTKLDIK
notes: Used as hybridoma supernatant or purified Mab; also called MAb 11E1; CNCM I-3724
B5: the half-maximal inhibitory concentration (IC50) in assay [2] amounted to 20 nM. Besides, in assay [1], the “basal effect on c-Met phosphorylation” value is under 20% and the “inhibition of c-Met phosphorylation” value came out at 68%. This molecule registered an inhibition of dimerization (BRET signal, CHO cells) in assay [4] of 69%.

B6: Fab fragment of mAb 11E1 (papain cleavage) (Fab, V domains shown)
VH: QVQLQQSGAELAKPGASVKMSCKASGYTFTSYWMNWVKQRPGQGLEWIGYINPTTGSTDYNQKLKDKATLTADKSSNTAYMQLSSLTSEDSAVYYCAIGGYGSWFAYWGQGTLVTVSA
VL: QIVLTQSPAIMSASPGEKVTLTCSASSSVSSTYLYWYQQKPGSSPKLWIYTTSILASGVPARFSGSGSGTSYSLTISSMETEDAASYFCHQWSSYPFTFGSGTKLDIK
notes: also called 11E1 Fab
On to B6, for which, in assay [5], the Half-Life was found to be 4.1 h, the equilibrium dissociation constant (Kd) was determined as 0.0414 nM and the on-rate constant (kon) amounted to 1.13e+06 M⁻¹ s⁻¹. The off-rate constant (koff) in assay [6] was determined as 4.68e-05 s⁻¹.
